The target of test [1] is DR1-restricted TCR HA1.7. Nature of the test: flow cytometry: HA1.7-transduced primary CD4+ T cells stained with PE DR1 dimer and anti-CD4.
For test [2], the target named is DR1-restricted TCR HA1.7. The description is as above. The source holds these as a separate data set.
Test [3] has as its target DR1-restricted TCR HA1.7. The test is described as follows: flow cytometry: TCR-transduced primary human T cells stained with PE class II dimer and anti-CD4.

“DR1^L114W/V143M dimer with the cognate peptide of TCR HA1.7 (peptide-MHC)” came in with a percent of cells in the dimer+ CD4+ quadrant in test [1] of 1.5%.

Turning to “DR1^L114W/V143M+2reps dimer specific to Flu-HA306-318 (peptide-MHC)”, the results for the percent of cells in the dimer+ CD4+ quadrant in test [1], in test [2] and in test [3] were 48.9%, 53% and 9.1%, respectively.

These data come from patent US20220281949A1.
